Starred links: 1 amine or outer side, 2 acyl side, 3 side chain; linkers in the order of their positions; H or OH if unused. Positions of bridges follow the written chain, without caps; N, C: chain ends. Non-standard residues stand in square brackets, D forms with d. Groups on a side chain read outwards from the residue. *: point of attachment. PEG12 = NCCOCCOCCOCCOCCOCCOCCOCCOCCOCCOCCOCCOCCC(=O)O; Dip = N[C@H](C(=O)O)C(c1ccccc1)c1ccccc1; NPC = nipecotic acid (L-nipecotic acid); γGlu = O=C(O)[C@H](CCC(=O)[*:2])N[*:1]; Palmitoyl = CCCCCCCCCCCCCCCC(=O)*; NMeF = CN[C@@H](Cc1ccccc1)C(=O)O; αMeF = C[C@](N)(Cc1ccccc1)C(=O)O; β3hF = N[C@H](CC(=O)O)Cc1ccccc1; Isovaleryl = CC(C)CC(=O)*

The labels stand for the following.
T1: human ferroportin (SLC40A1) fused in frame with the GFP protein, stably expressed in HEK293 cells (human, UniProt Q9NP59 1-571)
T1 sequence (looked up): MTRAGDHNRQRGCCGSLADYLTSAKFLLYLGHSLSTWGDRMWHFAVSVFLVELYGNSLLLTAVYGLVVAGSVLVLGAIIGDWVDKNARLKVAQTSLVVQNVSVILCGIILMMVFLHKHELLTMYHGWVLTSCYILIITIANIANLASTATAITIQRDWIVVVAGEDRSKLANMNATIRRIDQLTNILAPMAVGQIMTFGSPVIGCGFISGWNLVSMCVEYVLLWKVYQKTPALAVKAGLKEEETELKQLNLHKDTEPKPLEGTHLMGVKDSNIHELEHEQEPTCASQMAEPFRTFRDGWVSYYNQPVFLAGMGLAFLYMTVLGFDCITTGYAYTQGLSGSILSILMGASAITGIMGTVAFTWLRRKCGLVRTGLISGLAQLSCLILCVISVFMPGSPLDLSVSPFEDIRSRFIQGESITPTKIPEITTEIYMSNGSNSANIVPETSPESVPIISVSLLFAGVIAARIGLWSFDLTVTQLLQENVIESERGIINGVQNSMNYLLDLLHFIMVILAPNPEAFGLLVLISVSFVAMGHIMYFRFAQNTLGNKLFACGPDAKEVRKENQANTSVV

B1: Compd ID 501 (peptide)
chain: DTHFPCIKF
modifications: N-terminal isovaleric acid on each monomer; the two monomers linked through K-Lys[isoGlu-Palm]-NH2
B2: Compd ID 502 (peptide)
chain: DTHFPCIKF
modifications: N-terminal isovaleric acid on each monomer; the two monomers linked through [D-Lys]-Lys[isoGlu-Palm]-NH2
B3: Compd ID 503 (peptide)
chain: DTHFPCIKF
modifications: N-terminal isovaleric acid on each monomer; D-Lys 8; the two monomers linked through Lys[isoGlu-Palm]-NH2
B4: Compd ID 227 (peptide)
peptide: Isovaleryl-DTHFPCIK([γGlu-Palmitoyl])FKC-NH2
modifications: disulfide 6-11
SMILES: CCCCCCCCCCCCCCCC(=O)N[C@@H](CCC(=O)NCCCC[C@@H]1NC(=O)[C@H]([C@@H](C)CC)NC(=O)[C@@H](NC(=O)[C@@H]2CCCN2C(=O)[C@H](Cc2ccccc2)NC(=O)[C@H](Cc2c[nH]cn2)NC(=O)[C@@H](NC(=O)[C@H](CC(=O)O)NC(=O)CC(C)C)[C@@H](C)O)CSSC[C@@H](C(N)=O)NC(=O)[C@H](CCCCN)NC(=O)[C@H](Cc2ccccc2)NC1=O)C(=O)O
B5: Compd ID 217 (peptide)
peptide: Isovaleryl-DTH[αMeF]PCIK([γGlu-Palmitoyl])[αMeF]C-NH2
modifications: disulfide 6-10
SMILES: CCCCCCCCCCCCCCCC(=O)N[C@@H](CCC(=O)NCCCC[C@@H]1NC(=O)[C@H]([C@@H](C)CC)NC(=O)[C@@H](NC(=O)[C@@H]2CCCN2C(=O)[C@](C)(Cc2ccccc2)NC(=O)[C@H](Cc2c[nH]cn2)NC(=O)[C@@H](NC(=O)[C@H](CC(=O)O)NC(=O)CC(C)C)[C@@H](C)O)CSSC[C@@H](C(N)=O)NC(=O)[C@](C)(Cc2ccccc2)NC1=O)C(=O)O
B6: Compd ID 220 (peptide)
peptide: Isovaleryl-DTHWPCIK([γGlu-Palmitoyl])[αMeF]C-NH2
modifications: disulfide 6-10
SMILES: CCCCCCCCCCCCCCCC(=O)N[C@@H](CCC(=O)NCCCC[C@@H]1NC(=O)[C@H]([C@@H](C)CC)NC(=O)[C@@H](NC(=O)[C@@H]2CCCN2C(=O)[C@H](Cc2c[nH]c3ccccc23)NC(=O)[C@H](Cc2c[nH]cn2)NC(=O)[C@@H](NC(=O)[C@H](CC(=O)O)NC(=O)CC(C)C)[C@@H](C)O)CSSC[C@@H](C(N)=O)NC(=O)[C@](C)(Cc2ccccc2)NC1=O)C(=O)O
B7: Compd ID 224 (peptide)
peptide: Isovaleryl-DTHFPCI[dK]([PEG12-Palmitoyl])FKC-NH2
modifications: disulfide 6-11
SMILES: CCCCCCCCCCCCCCCC(=O)NCCOCCOCCOCCOCCOCCOCCOCCOCCOCCOCCOCCOCCC(=O)NCCCC[C@H]1NC(=O)[C@H]([C@@H](C)CC)NC(=O)[C@@H](NC(=O)[C@@H]2CCCN2C(=O)[C@H](Cc2ccccc2)NC(=O)[C@H](Cc2c[nH]cn2)NC(=O)[C@@H](NC(=O)[C@H](CC(=O)O)NC(=O)CC(C)C)[C@@H](C)O)CSSC[C@@H](C(N)=O)NC(=O)[C@H](CCCCN)NC(=O)[C@H](Cc2ccccc2)NC1=O
B8: Compd ID 223 (peptide)
peptide: Isovaleryl-DTHFPCIK([γGlu-Palmitoyl])FC-NH2
modifications: disulfide 6-10
SMILES: CCCCCCCCCCCCCCCC(=O)N[C@@H](CCC(=O)NCCCC[C@@H]1NC(=O)[C@H]([C@@H](C)CC)NC(=O)[C@@H](NC(=O)[C@@H]2CCCN2C(=O)[C@H](Cc2ccccc2)NC(=O)[C@H](Cc2c[nH]cn2)NC(=O)[C@@H](NC(=O)[C@H](CC(=O)O)NC(=O)CC(C)C)[C@@H](C)O)CSSC[C@@H](C(N)=O)NC(=O)[C@H](Cc2ccccc2)NC1=O)C(=O)O
B9: Compd ID 218 (peptide)
peptide: Isovaleryl-DTH[NMeF]PCIK([γGlu-Palmitoyl])[αMeF]C-NH2
modifications: disulfide 6-10
SMILES: CCCCCCCCCCCCCCCC(=O)N[C@@H](CCC(=O)NCCCC[C@@H]1NC(=O)[C@H]([C@@H](C)CC)NC(=O)[C@@H](NC(=O)[C@@H]2CCCN2C(=O)[C@H](Cc2ccccc2)N(C)C(=O)[C@H](Cc2c[nH]cn2)NC(=O)[C@@H](NC(=O)[C@H](CC(=O)O)NC(=O)CC(C)C)[C@@H](C)O)CSSC[C@@H](C(N)=O)NC(=O)[C@](C)(Cc2ccccc2)NC1=O)C(=O)O
B10: Compd ID 225 (peptide)
peptide: Isovaleryl-DTHFPCI[dK]([PEG12-Palmitoyl])F[dK]C-NH2
modifications: disulfide 6-11
SMILES: CCCCCCCCCCCCCCCC(=O)NCCOCCOCCOCCOCCOCCOCCOCCOCCOCCOCCOCCOCCC(=O)NCCCC[C@H]1NC(=O)[C@H]([C@@H](C)CC)NC(=O)[C@@H](NC(=O)[C@@H]2CCCN2C(=O)[C@H](Cc2ccccc2)NC(=O)[C@H](Cc2c[nH]cn2)NC(=O)[C@@H](NC(=O)[C@H](CC(=O)O)NC(=O)CC(C)C)[C@@H](C)O)CSSC[C@@H](C(N)=O)NC(=O)[C@@H](CCCCN)NC(=O)[C@H](Cc2ccccc2)NC1=O
B11: Compd ID 219 (peptide)
peptide: Isovaleryl-DTH[β3hF]PCIK([γGlu-Palmitoyl])[αMeF]C-NH2
modifications: disulfide 6-10
SMILES: CCCCCCCCCCCCCCCC(=O)N[C@@H](CCC(=O)NCCCC[C@@H]1NC(=O)[C@H]([C@@H](C)CC)NC(=O)[C@@H](NC(=O)[C@@H]2CCCN2C(=O)C[C@H](Cc2ccccc2)NC(=O)[C@H](Cc2c[nH]cn2)NC(=O)[C@@H](NC(=O)[C@H](CC(=O)O)NC(=O)CC(C)C)[C@@H](C)O)CSSC[C@@H](C(N)=O)NC(=O)[C@](C)(Cc2ccccc2)NC1=O)C(=O)O
B12: Compd ID 216 (peptide)
peptide: Isovaleryl-DTH[Dip]PCIK([γGlu-Palmitoyl])[αMeF]C-NH2
modifications: disulfide 6-10
SMILES: CCCCCCCCCCCCCCCC(=O)N[C@@H](CCC(=O)NCCCC[C@@H]1NC(=O)[C@H]([C@@H](C)CC)NC(=O)[C@@H](NC(=O)[C@@H]2CCCN2C(=O)[C@@H](NC(=O)[C@H](Cc2c[nH]cn2)NC(=O)[C@@H](NC(=O)[C@H](CC(=O)O)NC(=O)CC(C)C)[C@@H](C)O)C(c2ccccc2)c2ccccc2)CSSC[C@@H](C(N)=O)NC(=O)[C@](C)(Cc2ccccc2)NC1=O)C(=O)O
B13: Compd ID 222 (peptide)
peptide: Isovaleryl-DTHFPCIK([PEG12-Palmitoyl])FC-NH2
modifications: disulfide 6-10
SMILES: CCCCCCCCCCCCCCCC(=O)NCCOCCOCCOCCOCCOCCOCCOCCOCCOCCOCCOCCOCCC(=O)NCCCC[C@@H]1NC(=O)[C@H]([C@@H](C)CC)NC(=O)[C@@H](NC(=O)[C@@H]2CCCN2C(=O)[C@H](Cc2ccccc2)NC(=O)[C@H](Cc2c[nH]cn2)NC(=O)[C@@H](NC(=O)[C@H](CC(=O)O)NC(=O)CC(C)C)[C@@H](C)O)CSSC[C@@H](C(N)=O)NC(=O)[C@H](Cc2ccccc2)NC1=O

One assay concerns the target T1, human ferroportin (SLC40A1) fused in …. Briefly: cell-based or functional assay.
As to B1, the “FPN IC50” value came out at 28 nM.
Same read-out and setting: for B2 the value was 33 nM; for B3, 21 nM.

A further assay has the same target. Briefly: cell-based or functional assay. The source holds these as a separate data set.
B4: the “FPN IC50” value is 114 nM.
The same measure, in the same setting: to B5 belongs > 3000 nM; to B6, 871 nM.
Still for that read-out and setting: to B7 belongs 33 nM.
Consider Isovaleryl-DTHF[NPC]CIK([γGlu-Palmitoyl])[αMeF]C-NH2 (disulfide 6-10) [Compd ID 221], for which the “FPN IC50” value amounted to 79 nM.
Consider B8, for which the “FPN IC50” value was determined as 47 nM.
Still for that read-out and setting: for B9 the value was > 3000 nM; for Isovaleryl-DTHFPCI[dK]([PEG12-Palmitoyl])F[dR]C-NH2 (disulfide 6-11; not fully specified) [Compd ID 226], 23 nM.
Consider B10, for which the “FPN IC50” value is 26 nM.
In the case of B11, the “FPN IC50” value stood at 182 nM.
Consider B12, for which the “FPN IC50” value is 16 nM.
On to B13, for which the “FPN IC50” value stood at 4 nM.

These data come from patent US20200361992A1 (PROTAGONIST THERAPEUTICS, published 2020).
